Earlier results in paper PMC5871566.
Read-outs that look alike come from different tables or passages of the source.

Key:
C4b (Homo sapiens) [1] = target: C4b (Homo sapiens) (UniProt P0C0L4)
C4b (Homo sapiens) [2] = target: C4b (Homo sapiens) (UniProt P0C0L4); remark: listed apart in the source

UniProt P0C0L4, sequence (P0C0L4 20-1744, chain 1 of 2): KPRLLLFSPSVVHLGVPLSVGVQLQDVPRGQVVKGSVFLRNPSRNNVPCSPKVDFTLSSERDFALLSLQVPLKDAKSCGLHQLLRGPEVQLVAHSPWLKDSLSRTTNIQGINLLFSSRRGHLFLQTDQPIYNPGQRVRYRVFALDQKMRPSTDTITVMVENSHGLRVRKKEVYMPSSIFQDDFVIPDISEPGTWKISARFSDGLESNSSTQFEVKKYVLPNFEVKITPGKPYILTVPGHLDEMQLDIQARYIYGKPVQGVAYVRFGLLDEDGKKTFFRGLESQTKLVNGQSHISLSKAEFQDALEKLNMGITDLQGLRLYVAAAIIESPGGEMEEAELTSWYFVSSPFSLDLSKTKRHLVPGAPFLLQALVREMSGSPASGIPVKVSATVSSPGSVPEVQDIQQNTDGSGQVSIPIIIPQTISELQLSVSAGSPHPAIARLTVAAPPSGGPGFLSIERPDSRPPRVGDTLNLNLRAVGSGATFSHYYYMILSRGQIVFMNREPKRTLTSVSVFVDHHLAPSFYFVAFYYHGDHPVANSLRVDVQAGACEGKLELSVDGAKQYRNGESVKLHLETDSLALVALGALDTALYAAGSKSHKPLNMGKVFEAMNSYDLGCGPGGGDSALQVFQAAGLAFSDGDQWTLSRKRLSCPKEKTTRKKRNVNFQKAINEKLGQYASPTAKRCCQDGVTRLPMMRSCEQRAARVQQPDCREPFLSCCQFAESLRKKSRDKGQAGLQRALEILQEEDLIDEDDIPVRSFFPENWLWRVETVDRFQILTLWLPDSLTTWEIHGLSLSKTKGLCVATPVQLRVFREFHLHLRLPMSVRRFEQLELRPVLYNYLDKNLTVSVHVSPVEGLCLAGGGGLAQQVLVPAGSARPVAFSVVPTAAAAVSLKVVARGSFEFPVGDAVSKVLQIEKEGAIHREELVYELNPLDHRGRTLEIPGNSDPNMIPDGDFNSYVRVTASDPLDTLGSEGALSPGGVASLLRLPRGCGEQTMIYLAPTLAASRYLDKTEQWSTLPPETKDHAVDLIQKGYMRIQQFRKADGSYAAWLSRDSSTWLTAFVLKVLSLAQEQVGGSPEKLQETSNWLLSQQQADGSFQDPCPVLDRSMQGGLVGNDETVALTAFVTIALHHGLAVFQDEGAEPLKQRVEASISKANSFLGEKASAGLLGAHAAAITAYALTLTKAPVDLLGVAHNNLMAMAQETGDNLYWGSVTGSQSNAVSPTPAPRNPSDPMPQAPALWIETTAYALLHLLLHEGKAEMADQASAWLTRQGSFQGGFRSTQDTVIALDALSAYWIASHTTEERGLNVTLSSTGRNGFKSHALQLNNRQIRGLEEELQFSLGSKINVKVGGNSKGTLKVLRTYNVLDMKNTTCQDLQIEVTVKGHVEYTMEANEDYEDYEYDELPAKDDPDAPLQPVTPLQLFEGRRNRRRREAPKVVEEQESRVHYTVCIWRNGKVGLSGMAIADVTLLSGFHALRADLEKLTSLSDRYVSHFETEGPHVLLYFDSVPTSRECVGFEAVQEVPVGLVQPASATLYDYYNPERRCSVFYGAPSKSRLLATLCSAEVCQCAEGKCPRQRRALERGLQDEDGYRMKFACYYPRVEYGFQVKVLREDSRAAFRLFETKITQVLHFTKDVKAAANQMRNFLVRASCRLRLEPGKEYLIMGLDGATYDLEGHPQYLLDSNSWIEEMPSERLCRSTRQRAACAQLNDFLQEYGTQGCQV
UniProt P0C0L4, sequence (P0C0L5 20-1744, chain 2 of 2, further chain): as the sequence (P0C0L4 20-1744, chain 1 of 2) above, with A888T, D1054G, P1101L, C1102S, L1105I, D1106H, N1157S, V1188A, L1191R, S1267A counted along it

Substance	Kd (C4b (Homo sapiens) [1]) [µM]	Kd (C4b (Homo sapiens) [2]) [µM]
Eap34 domains 3-4 (from UniProt Q99QS1)	0.525	–
Eap individual domains (domain 3 or 4) domain 3 or domain 4 (from UniProt Q2FWW1)	–	40
